Experimental data: patent US20240294593A1 (Genentech, published 2024)
Residue numbers refer to the chain shown, from its start. Names may count otherwise.

T1: cynomolgus PD-1-His (cynomolgus monkey)
T1 chain: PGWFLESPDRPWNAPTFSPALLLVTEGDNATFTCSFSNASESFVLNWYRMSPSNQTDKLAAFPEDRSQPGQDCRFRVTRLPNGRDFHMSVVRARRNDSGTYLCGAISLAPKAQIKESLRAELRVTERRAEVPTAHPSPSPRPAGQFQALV

B1: H1_L1.134 (antibody, V domains shown)
VH: EVQLVESGGGLVQPGGSLRLSCAASGFTFSSFGMHWVRQAPGKGLEWVSYISSGSSIIYYADSVKGRFTISRDNAKNSLYLQMNSLRAEDTAVYYCARGGRLVWSPDYWGQGTLVTVSS
VL: DIVMTQSPDSLAVSLGERATINCKSSQSLLNSGNQKNYLTWYQQKPGQPPKLLIYWASTRESGVPDRFTGSGSGTDFTLTISSLQAEDVAVYYCQNDYSKPFTFGSGTKLEIKR
notes: also called VL-Y100K; Kabat 94
B2: H1.178_L1.140 (XENP32424) (antibody, V domains shown)
VH: B1 VH with F32L, S53G, R101F, W104F
VL: B1 VL with N31H, K36Y, S99T, K100Y
notes: VH-F34L/S55G/R109F/W112F, VL-N31H/K36Y/S99T (Xencor #); Kabat positions VH-32/52A/97/100, VL-27D/30/93; also called mAb C[PD-1]_H1.178_L1.140; copies: 2 + 2
B3: H1.188_L1.140 (XENP32434) (antibody, V domains shown)
VH: B1 VH with F32L, S53G, R101T, W104F
VL: B1 VL with N31H, K36Y, S99T, K100Y
notes: VH-F34L/S55G/R109T/W112F, VL-N31H/K36Y/S99T (Xencor #); Kabat positions VH-32/52A/97/100, VL-27D/30/93; also called mAb C[PD-1]_H1.188_L1.140
B4: H1.183_L1.140 (XENP32429) (antibody, V domains shown)
VH: B1 VH with F32L, S53G, R101V, W104F
VL: B1 VL with N31H, K36Y, S99T, K100Y
notes: VH-F34L/S55G/R109V/W112F, VL-N31H/K36Y/S99T (Xencor #); Kabat positions VH-32/52A/97/100, VL-27D/30/93; also called mAb C[PD-1]_H1.183_L1.140; copies: 2 + 2
B5: mAb C[PD1]_H1.176_L1.140 (bivalent IgG1) (antibody, V domains shown)
VH: B1 VH with F32L, W104F
VL: DIVMTQSPDSLAVSLGERATINCKSSQSLLHSGNQYNYLTWYQQKPGQPPKLLIYWASTRESGVPDRFTGSGSGTDFTLTISSLQAEDVAVYYCQNDYTYPFTFGSGTKLEIK
notes: Bivalent IgG1 format with E233P/L234V/L235A/G236_/S267K
B6: H1.184_L1.140 (XENP32430) (antibody, V domains shown)
VH: B1 VH with F32L, S53G, R101D, W104F
VL: B1 VL with N31H, K36Y, S99T, K100Y
notes: VH-F34L/S55G/R109D/W112F, VL-N31H/K36Y/S99T (Xencor #); Kabat positions VH-32/52A/97/100, VL-27D/30/93; also called mAb C[PD-1]_H1.184_L1.140; copies: 2 + 2
B7: mAb C[PD1]_H1.180_L1.140 (bivalent IgG1) (antibody, V domains shown)
VH: B1 VH with F32L, S53G, R101E, W104F
VL: B1 VL with N31H, K36Y, S99T, K100Y
notes: Bivalent IgG1 format with E233P/L234V/L235A/G236_/S267K; copies: 2 + 2
B8: H1.187_L1.140 (XENP32433) (antibody, V domains shown)
VH: B1 VH with F32L, S53G, R101W, W104F
VL: B1 VL with N31H, K36Y, S99T, K100Y
notes: VH-F34L/S55G/R109W/W112F, VL-N31H/K36Y/S99T (Xencor #); Kabat positions VH-32/52A/97/100, VL-27D/30/93; also called mAb C[PD-1]_H1.187_L1.140
B9: H1.179_L1.140 (XENP32425) (antibody, V domains shown)
VH: B1 VH with F32L, S53G, R101Y, W104F
VL: B1 VL with N31H, K36Y, S99T, K100Y
notes: VH-F34L/S55G/R109Y/W112F, VL-N31H/K36Y/S99T (Xencor #); Kabat positions VH-32/52A/97/100, VL-27D/30/93; also called mAb C[PD-1]_H1.179_L1.140; copies: 2 + 2
B10: H1.182_L1.140 (XENP32428) (antibody, V domains shown)
VH: B1 VH with F32L, S53G, R101L, W104F
VL: B1 VL with N31H, K36Y, S99T, K100Y
notes: VH-F34L/S55G/R109L/W112F, VL-N31H/K36Y/S99T (Xencor #); Kabat positions VH-32/52A/97/100, VL-27D/30/93; also called mAb C[PD-1]_H1.182_L1.140; copies: 2 + 2
B11: H1.186_L1.140 (XENP32432) (antibody, V domains shown)
VH: B1 VH with F32L, S53G, R101A, W104F
VL: B1 VL with N31H, K36Y, S99T, K100Y
notes: VH-F34L/S55G/R109A/W112F, VL-N31H/K36Y/S99T (Xencor #); Kabat positions VH-32/52A/97/100, VL-27D/30/93; also called mAb C[PD-1]_H1.186_L1.140; copies: 2 + 2
B12: mAb C[PD1]_H1.177_L1.140 (bivalent IgG1) (antibody, V domains shown)
VH: B1 VH with F32L, S53G, W104F
VL: B1 VL with N31H, K36Y, S99T, K100Y
notes: as for B7
B13: H1.185_L1.140 (XENP32431) (antibody, V domains shown)
VH: B1 VH with F32L, S53G, R101H, W104F
VL: B1 VL with N31H, K36Y, S99T, K100Y
notes: VH-F34L/S55G/R109H/W112F, VL-N31H/K36Y/S99T (Xencor #); Kabat positions VH-32/52A/97/100, VL-27D/30/93; also called mAb C[PD-1]_H1.185_L1.140; copies: 2 + 2
B14: H1.181_L1.140 (XENP32427) (antibody, V domains shown)
VH: B1 VH with F32L, S53G, R101Q, W104F
VL: B1 VL with N31H, K36Y, S99T, K100Y
notes: VH-F34L/S55G/R109Q/W112F, VL-N31H/K36Y/S99T (Xencor #); Kabat positions VH-32/52A/97/100, VL-27D/30/93; also called mAb C[PD-1]_H1.181_L1.140; copies: 2 + 2
B15: XENP28537 (humanized variant of mAb C, bivalent human IgG1) (antibody, V domains shown)
VH: B1 VH
VL: DIVMTQSPLSLPVTPGEPASISCRSSQSLLNSGNQKNYLTWYLQKPGQPPQLLIYWASTRESGVPDRFTGSGSGTDFTLKISRVEAEDVGVYYCQNDYSYPFTFGSGTKLEIKR
notes: Human IgG1 with E233P/L234V/L235A/G236del/S267K

Target: T2, human PD-1-His (human, UniProt Q15116 25-167, limits assumed)
T2 construct: Antigen of the Octet assays; not shown: His tag
Test: Octet

T2 sequence (Q15116 25-167 limits assumed): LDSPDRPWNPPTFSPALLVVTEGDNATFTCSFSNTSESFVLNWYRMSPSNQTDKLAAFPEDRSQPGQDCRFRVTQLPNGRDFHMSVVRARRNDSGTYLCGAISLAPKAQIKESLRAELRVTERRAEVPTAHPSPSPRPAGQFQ

Row | Binder | Kd | koff | kon
1 | B1 | 91.3 nM | 0.0153 s⁻¹ | 168000 M⁻¹ s⁻¹

Target: T2, human PD-1-His
Test: Octet (BLI), bivalent IgG1 mAb; legend calls the constant apparent (KDapp)

Row | Binder | Kd
2 | B2 | 0.986 nM
3 | B3 | 0.981 nM
4 | B4 | 0.952 nM
5 | B5 | 2.13 nM
6 | B6 | 0.798 nM
7 | B7 | 0.601 nM
8 | B8 | 1.03 nM
9 | B9 | 0.864 nM
10 | B10 | 0.943 nM
11 | B11 | 0.945 nM
12 | B12 | 1.6 nM
13 | B13 | 1.06 nM
14 | B14 | 0.905 nM

Target: T2, human PD-1-His
Test: Octet (BLI), bivalent IgG1 mAb

Row | Binder | koff | kon
15 | B2 | 0.000182 s⁻¹ | 184000 M⁻¹ s⁻¹
16 | B3 | 0.000177 s⁻¹ | 181000 M⁻¹ s⁻¹
17 | B4 | 0.000178 s⁻¹ | 187000 M⁻¹ s⁻¹
18 | B5 | 0.000278 s⁻¹ | 131000 M⁻¹ s⁻¹
19 | B6 | 0.000188 s⁻¹ | 236000 M⁻¹ s⁻¹
20 | B7 | 0.000154 s⁻¹ | 256000 M⁻¹ s⁻¹
21 | B8 | 0.000198 s⁻¹ | 193000 M⁻¹ s⁻¹
22 | B9 | 0.00017 s⁻¹ | 197000 M⁻¹ s⁻¹
23 | B10 | 0.000176 s⁻¹ | 187000 M⁻¹ s⁻¹
24 | B11 | 0.000179 s⁻¹ | 189000 M⁻¹ s⁻¹
25 | B12 | 0.00022 s⁻¹ | 138000 M⁻¹ s⁻¹
26 | B13 | 0.000169 s⁻¹ | 160000 M⁻¹ s⁻¹
27 | B14 | 0.000173 s⁻¹ | 191000 M⁻¹ s⁻¹

Target: T1, cynomolgus PD-1-His
Test: Octet (BLI); antibody captured on anti-human Fc (AHC) biosensors and dipped into multiple concentrations of cynomolgus PD-1-His

Row | Binder | Kd
28 | B15 | 42 nM
